Reference: IntAct's records for PubMed 29997244

B1: DnaJ homolog subfamily C member 5 (Homo sapiens), Q9H3Z4 (parent)
chain: MADQRQRSLSTSGESLYHVLGLDKNATSDDIKKSYRKLALKYHPDKNPDNPEAADKFKEINNAHAILTDATKRNIYDKYGSLGLYVAEQFGEENVNTYFVLSSWWAKALFVFCGLLTCCYCCCCLCCCFNCCCGKCKPKAPEGEETEFYVSPEDLEAQLQSDEREATDTPIVIQPASATETTQLTADSHPSYHTDGFN
partner: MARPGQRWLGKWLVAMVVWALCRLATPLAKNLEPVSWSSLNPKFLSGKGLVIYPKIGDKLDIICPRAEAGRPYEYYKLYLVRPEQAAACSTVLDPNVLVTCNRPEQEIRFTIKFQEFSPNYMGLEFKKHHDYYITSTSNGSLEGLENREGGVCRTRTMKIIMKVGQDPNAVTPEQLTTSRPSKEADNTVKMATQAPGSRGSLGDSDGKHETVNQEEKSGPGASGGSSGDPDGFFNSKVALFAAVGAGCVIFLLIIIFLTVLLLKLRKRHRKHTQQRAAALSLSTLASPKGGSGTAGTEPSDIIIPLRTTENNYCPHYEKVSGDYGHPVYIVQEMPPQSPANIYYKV
B2: DnaJ homolog subfamily C member 5 (Homo sapiens), Q9H3Z4 (parent)
chain: B1 chain
partner: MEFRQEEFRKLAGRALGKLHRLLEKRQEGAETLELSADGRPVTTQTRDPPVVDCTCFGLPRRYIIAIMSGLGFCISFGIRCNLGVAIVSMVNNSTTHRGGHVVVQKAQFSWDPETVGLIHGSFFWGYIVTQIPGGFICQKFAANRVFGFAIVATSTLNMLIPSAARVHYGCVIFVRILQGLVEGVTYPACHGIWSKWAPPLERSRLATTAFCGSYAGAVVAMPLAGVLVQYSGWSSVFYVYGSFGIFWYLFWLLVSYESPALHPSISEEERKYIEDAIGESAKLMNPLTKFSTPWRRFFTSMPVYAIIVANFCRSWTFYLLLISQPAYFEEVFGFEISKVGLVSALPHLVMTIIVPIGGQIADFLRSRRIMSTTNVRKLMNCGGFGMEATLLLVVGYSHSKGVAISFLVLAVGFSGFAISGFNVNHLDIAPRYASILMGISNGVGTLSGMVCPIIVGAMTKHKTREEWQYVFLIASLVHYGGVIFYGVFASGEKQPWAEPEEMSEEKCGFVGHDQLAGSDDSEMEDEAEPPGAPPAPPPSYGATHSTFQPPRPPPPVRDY
B3: DnaJ homolog subfamily C member 5 (Homo sapiens), Q9H3Z4 (parent)
chain: B1 chain
partner: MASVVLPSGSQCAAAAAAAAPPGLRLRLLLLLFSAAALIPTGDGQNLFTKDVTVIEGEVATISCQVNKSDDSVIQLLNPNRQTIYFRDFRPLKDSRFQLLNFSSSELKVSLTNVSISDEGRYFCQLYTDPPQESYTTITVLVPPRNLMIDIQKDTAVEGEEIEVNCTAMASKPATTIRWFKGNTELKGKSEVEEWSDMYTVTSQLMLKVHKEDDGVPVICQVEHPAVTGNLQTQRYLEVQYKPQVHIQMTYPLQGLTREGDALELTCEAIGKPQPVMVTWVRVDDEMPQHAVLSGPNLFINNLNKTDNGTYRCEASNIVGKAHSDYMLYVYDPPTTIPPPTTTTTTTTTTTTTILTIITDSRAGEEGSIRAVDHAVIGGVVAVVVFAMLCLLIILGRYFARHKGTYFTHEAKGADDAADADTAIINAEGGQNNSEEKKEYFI
B4: DnaJ homolog subfamily C member 5 (Homo sapiens), Q9H3Z4 (parent)
chain: B1 chain
partner: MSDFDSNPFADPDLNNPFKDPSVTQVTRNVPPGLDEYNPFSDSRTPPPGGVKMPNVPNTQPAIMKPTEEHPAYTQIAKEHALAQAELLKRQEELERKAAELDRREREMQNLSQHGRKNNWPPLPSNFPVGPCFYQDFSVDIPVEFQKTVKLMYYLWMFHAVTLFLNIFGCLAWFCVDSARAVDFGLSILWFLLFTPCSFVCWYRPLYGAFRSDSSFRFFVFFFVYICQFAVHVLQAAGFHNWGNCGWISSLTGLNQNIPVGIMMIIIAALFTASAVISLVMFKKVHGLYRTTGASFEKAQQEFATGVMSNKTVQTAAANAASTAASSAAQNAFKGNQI
B5: DnaJ homolog subfamily C member 5 (Homo sapiens), Q9H3Z4 (parent)
chain: B1 chain
partner: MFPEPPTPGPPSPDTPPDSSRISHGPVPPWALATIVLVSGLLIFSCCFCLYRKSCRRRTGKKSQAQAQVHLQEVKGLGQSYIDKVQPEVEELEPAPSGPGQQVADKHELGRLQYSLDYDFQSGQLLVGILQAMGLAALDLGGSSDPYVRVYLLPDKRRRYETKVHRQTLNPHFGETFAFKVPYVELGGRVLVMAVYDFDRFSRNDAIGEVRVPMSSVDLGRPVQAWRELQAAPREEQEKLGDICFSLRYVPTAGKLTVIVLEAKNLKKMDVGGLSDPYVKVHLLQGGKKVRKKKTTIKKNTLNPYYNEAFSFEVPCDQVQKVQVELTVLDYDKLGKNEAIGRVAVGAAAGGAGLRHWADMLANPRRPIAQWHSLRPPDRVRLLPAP
B6: DnaJ homolog subfamily C member 5 (Homo sapiens), Q9H3Z4 (parent)
chain: B1 chain
partner: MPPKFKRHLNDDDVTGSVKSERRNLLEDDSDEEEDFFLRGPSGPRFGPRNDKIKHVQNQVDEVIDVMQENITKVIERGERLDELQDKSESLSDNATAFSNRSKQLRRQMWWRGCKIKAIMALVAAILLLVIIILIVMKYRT
B7: DnaJ homolog subfamily C member 5 (Homo sapiens), Q9H3Z4 (parent)
chain: B1 chain
partner: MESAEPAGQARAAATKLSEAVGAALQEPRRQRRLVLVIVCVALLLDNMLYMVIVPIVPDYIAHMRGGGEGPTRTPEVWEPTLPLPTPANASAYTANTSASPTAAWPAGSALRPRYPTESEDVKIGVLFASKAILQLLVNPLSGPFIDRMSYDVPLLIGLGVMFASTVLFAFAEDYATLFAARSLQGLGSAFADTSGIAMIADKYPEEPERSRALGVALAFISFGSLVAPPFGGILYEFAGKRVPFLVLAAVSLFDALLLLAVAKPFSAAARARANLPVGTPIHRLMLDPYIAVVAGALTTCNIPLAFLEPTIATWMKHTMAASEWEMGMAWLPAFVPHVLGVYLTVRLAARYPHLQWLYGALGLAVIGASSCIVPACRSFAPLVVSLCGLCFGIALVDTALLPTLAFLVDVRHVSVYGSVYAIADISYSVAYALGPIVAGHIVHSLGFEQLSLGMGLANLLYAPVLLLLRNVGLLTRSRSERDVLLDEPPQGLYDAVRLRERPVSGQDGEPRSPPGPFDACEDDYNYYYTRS
B8: DnaJ homolog subfamily C member 5 (Homo sapiens), Q9H3Z4 (parent)
chain: B1 chain
partner: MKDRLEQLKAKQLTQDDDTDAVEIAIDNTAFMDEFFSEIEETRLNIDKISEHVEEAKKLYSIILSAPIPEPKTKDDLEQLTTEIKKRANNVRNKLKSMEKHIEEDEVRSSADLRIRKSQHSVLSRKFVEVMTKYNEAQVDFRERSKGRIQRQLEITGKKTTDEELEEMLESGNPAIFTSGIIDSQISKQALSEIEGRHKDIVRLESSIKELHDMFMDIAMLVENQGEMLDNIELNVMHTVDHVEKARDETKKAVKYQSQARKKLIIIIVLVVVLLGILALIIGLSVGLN
B9: DnaJ homolog subfamily C member 5 (Homo sapiens), Q9H3Z4 (parent)
chain: B1 chain
partner: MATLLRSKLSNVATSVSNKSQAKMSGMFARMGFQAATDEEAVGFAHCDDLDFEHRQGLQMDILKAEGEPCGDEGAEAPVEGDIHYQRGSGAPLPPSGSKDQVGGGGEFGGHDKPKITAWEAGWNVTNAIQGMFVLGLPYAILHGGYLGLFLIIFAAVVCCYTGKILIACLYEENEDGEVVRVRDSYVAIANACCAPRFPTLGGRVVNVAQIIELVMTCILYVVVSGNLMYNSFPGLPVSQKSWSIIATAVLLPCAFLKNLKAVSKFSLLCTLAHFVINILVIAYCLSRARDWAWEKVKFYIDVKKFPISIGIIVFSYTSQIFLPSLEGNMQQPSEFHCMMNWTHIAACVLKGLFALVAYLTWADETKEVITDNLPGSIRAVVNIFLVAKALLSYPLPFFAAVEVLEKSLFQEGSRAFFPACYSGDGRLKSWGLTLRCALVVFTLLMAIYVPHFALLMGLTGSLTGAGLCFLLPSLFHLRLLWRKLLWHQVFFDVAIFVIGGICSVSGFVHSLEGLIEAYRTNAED
B10: DnaJ homolog subfamily C member 5 (Homo sapiens), Q9H3Z4 (parent)
chain: B1 chain
partner: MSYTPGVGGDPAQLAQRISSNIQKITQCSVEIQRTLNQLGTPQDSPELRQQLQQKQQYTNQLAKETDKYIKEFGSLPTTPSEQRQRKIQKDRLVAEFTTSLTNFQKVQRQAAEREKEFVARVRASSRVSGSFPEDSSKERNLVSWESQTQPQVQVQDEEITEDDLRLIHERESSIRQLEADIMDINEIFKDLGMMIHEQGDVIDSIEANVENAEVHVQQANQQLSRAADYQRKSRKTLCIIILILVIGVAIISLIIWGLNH
B11: DnaJ homolog subfamily C member 5 (Homo sapiens), Q9H3Z4 (parent)
chain: B1 chain
partner: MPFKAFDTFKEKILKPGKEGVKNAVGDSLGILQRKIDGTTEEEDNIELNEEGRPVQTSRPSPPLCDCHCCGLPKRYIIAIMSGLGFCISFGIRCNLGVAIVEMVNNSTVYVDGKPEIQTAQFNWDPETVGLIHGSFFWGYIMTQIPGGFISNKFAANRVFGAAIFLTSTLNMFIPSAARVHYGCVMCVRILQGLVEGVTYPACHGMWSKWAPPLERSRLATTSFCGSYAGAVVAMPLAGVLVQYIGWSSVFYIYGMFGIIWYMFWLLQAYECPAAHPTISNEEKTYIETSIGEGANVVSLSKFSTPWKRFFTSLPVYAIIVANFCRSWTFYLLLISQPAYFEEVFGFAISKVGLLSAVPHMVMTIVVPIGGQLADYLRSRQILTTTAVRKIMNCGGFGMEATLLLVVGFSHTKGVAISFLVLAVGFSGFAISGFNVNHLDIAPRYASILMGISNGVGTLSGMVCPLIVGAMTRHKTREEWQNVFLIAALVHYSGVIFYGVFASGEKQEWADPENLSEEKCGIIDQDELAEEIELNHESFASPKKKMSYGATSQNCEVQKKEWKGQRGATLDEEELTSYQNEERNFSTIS
B12: DnaJ homolog subfamily C member 5 (Homo sapiens), Q9H3Z4 (parent)
chain: B1 chain
partner: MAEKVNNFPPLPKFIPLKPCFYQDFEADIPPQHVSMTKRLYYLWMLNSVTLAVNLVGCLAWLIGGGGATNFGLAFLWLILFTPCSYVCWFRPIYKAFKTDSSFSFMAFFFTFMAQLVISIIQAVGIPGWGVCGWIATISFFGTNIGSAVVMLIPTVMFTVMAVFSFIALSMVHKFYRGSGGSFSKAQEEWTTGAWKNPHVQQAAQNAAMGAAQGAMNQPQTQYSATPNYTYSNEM

Variants of: B1
Conditions: with efnb1_human EFNB1, P98172

effect of a mutation on the interaction | Variant
decreasing interaction strength | L115R

Variants of: B2
Conditions: with vglu1_human SLC17A7, Q9P2U7

effect of a mutation on the interaction | Variant
with no effect | L115R

Variants of: B3
Conditions: with cadm1_human CADM1, Q9BY67

effect of a mutation on the interaction | Variant
decreasing interaction strength | L115R

Variants of: B4
Conditions: with scam1_human SCAMP1, O15126

effect of a mutation on the interaction | Variant
with no effect | L115R

Variants of: B5
Conditions: with syt5_human SYT5, O00445

effect of a mutation on the interaction | Variant
with no effect | L115R

Variants of: B6
Conditions: with vamp4_human VAMP4, O75379

effect of a mutation on the interaction | Variant
with no effect | L115R

Variants of: B7
Conditions: with vacht_human SLC18A3, Q16572

effect of a mutation on the interaction | Variant
with no effect | L115R

Variants of: B8
Conditions: with stx3_human STX3, Q13277

effect of a mutation on the interaction | Variant
with no effect | L115R

Variants of: B9
Conditions: with viaat_human SLC32A1, Q9H598

effect of a mutation on the interaction | Variant
with no effect | L115R

Variants of: B10
Conditions: with stx7_human STX7, O15400

effect of a mutation on the interaction | Variant
decreasing interaction strength | L115R

Variants of: B11
Conditions: with vglu3_human SLC17A8, Q8NDX2

effect of a mutation on the interaction | Variant
with no effect | L115R

Variants of: B12
Conditions: with scam5_human SCAMP5, Q8TAC9

effect of a mutation on the interaction | Variant
with no effect | L115R
